Experimental findings from patent US20090286252A1 (NEW YORK UNIVERSITY, published 2009) are described below.

Assay [1] deals with full length cTRα (chicken) (UniProt P04625). The experiment in a line: cell-based or functional assay.
A further assay has as its target T1, B42-cTRα LBD (chicken, UniProt P04625 120-408).
T1 construct: also called B42-TR LBD; LBD of TR (fused with B-42)
T1 sequence (looked up): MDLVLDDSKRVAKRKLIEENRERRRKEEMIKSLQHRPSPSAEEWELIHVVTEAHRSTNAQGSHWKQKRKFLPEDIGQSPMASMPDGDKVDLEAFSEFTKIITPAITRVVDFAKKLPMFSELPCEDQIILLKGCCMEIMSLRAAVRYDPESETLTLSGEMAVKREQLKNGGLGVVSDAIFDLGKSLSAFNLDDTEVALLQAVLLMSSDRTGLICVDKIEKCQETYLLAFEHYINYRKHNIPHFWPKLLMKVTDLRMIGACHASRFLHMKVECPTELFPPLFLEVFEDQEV
The experiment in a line: yeast two-hybrid (data not shown). The method, then: (§1) The following receptor baits were used: LexA-cTRα LBD, LexA-hTRβ LBD, LexA-hRARα LBD, LexA-hRXRα LBD, and LexA-hGR LBD. […] Yeast cells harboring appropriate plasmids were grown in selective media with Gal/Raf in the presence or absence of cognate ligand (1 μM T3 for TR, all trans or 9-cis RA for RAR, 9-cis RA for RXR, and 10 μM deoxycorticosterone for GR) overnight before β-galactosidase activity was assayed using o-Nitrophenyl β-D-Galactopyranoside as the substrate. β-galactosidase units are expressed as (O.D. 420 nm×1000)/(minutes of incubation×O.D. 600 nm of yeast suspension).

Another assay deals with T2, B42-hRARα LBD (human, UniProt P10276 154-462).
T2 construct: also called B42-RAR LBD; LBD of RAR
T2 sequence (looked up): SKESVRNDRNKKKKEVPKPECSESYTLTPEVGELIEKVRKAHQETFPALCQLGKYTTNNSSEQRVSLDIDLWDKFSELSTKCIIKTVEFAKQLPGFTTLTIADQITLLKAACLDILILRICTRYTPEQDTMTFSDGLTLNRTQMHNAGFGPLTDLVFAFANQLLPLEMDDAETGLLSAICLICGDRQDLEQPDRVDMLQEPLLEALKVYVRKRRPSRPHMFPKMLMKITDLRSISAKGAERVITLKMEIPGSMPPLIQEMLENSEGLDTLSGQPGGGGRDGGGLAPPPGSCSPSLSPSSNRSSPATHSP
The experiment in a line: yeast two-hybrid (data not shown). On the procedure:
as §1

A further assay addresses T3, B42-hRXRα LBD (human, UniProt P19793 198-462).
T3 construct: also called B42-RXR LBD; LBD of RXR (fused with B-42)
T3 sequence (looked up): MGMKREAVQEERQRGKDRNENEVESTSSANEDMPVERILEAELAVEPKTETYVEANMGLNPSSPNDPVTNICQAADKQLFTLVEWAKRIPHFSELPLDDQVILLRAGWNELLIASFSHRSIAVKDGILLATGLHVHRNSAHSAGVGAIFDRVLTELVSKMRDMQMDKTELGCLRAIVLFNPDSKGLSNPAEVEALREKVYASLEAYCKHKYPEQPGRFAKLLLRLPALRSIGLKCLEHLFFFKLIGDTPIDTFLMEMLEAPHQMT
As to the kind of experiment: yeast two-hybrid (data not shown). The method, then: as §1

In another assay the target is T4, LexA-hRARα LBD (human, UniProt P0A7C2 1-202; P10276 154-462, limits assumed).
T4 construct: also called LexA-RAR
T4 sequence (looked up): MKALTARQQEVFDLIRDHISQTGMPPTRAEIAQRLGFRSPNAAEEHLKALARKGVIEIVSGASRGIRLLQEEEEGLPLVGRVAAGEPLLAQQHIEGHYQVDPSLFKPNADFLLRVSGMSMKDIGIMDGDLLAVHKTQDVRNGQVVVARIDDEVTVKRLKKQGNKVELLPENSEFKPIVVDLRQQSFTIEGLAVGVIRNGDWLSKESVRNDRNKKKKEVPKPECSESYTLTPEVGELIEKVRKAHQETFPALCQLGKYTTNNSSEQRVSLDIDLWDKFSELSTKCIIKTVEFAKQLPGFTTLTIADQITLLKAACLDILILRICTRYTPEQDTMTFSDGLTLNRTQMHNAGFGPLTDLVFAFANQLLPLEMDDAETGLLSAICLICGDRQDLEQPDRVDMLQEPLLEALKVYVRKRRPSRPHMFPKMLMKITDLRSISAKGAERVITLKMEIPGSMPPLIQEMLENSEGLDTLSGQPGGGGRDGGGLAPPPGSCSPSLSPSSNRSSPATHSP
As to the kind of experiment: yeast two-hybrid (data not shown). The method, then: as §1

The next assay concerns the target T5, LexA-hGR LBD (human, UniProt P0A7C2 1-202; P04150 485-777, limits assumed).
T5 construct: also called LexA-GR
T5 sequence (looked up): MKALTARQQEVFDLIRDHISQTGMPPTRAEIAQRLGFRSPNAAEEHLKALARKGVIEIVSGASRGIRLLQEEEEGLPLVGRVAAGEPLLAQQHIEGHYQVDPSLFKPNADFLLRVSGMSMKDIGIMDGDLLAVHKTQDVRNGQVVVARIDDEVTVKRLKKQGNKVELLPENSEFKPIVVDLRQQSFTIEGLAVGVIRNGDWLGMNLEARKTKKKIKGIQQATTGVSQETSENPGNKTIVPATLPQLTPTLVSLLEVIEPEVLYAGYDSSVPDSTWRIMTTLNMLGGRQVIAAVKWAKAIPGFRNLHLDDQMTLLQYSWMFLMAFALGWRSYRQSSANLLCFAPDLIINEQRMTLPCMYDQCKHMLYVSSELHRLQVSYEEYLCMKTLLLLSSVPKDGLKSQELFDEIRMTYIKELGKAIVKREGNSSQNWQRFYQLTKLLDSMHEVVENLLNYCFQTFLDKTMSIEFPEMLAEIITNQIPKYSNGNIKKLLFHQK
The experiment in a line: yeast two-hybrid (data not shown). On the procedure:
as §1

The target of the next assay is T6, LexA-hRXRα LBD (human, UniProt P0A7C2 1-202; P19793 198-462, limits assumed).
T6 construct: also called LexA-RXR
T6 sequence (looked up): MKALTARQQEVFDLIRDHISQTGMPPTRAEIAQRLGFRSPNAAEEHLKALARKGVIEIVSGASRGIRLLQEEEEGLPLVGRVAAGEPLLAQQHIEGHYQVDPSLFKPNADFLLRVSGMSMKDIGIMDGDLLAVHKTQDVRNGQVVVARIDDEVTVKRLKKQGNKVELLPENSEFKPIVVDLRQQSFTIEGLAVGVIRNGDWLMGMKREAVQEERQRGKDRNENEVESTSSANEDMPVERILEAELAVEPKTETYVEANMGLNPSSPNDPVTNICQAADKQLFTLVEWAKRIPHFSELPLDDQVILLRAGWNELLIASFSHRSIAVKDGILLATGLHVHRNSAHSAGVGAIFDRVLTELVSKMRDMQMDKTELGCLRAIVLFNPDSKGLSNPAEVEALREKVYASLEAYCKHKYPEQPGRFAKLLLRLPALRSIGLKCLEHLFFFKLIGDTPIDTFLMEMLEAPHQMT
The experiment in a line: yeast two-hybrid, β-galactosidase (FIG. 8B). The method, then:
as §1

The target of another assay is T7, LexA-cTRα LBD (chicken, UniProt P0A7C2 1-202; P04625 120-408, limits assumed).
T7 construct: also called LexA-TR LBD; LexA-TR
T7 sequence (looked up): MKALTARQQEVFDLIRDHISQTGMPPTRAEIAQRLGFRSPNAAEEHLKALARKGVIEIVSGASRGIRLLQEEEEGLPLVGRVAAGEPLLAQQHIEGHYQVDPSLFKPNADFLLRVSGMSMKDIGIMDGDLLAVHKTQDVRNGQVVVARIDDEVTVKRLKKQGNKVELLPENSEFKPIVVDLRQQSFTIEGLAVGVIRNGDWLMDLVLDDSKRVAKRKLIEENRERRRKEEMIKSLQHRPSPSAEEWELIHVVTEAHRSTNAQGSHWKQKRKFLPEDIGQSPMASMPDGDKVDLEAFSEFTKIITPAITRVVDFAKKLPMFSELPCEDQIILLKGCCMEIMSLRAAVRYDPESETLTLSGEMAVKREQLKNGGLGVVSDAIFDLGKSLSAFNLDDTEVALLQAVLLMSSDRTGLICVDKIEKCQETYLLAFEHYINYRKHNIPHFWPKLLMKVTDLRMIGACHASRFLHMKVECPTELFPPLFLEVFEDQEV
As to the kind of experiment: yeast two-hybrid, β-galactosidase (FIG. 8B). On the procedure:
as §1

For the molecule “NRIF3 (full length) (from UniProt Q13352 1-177)”, in assay [1], the enhancement of TR-mediated activation of the GH-TRE-tk-CAT reporter in HeLa cells (FIG. 5B) amounted to 3.5 fold and the enhancement of TR-mediated activation of the IR-ΔMTV-CAT reporter in HeLa cells (FIG. 5A) was 2.5 to 3 fold.

B1: LexA alone (other, UniProt P0A7C2 1-202, looked up)
chain: MKALTARQQEVFDLIRDHISQTGMPPTRAEIAQRLGFRSPNAAEEHLKALARKGVIEIVSGASRGIRLLQEEEEGLPLVGRVAAGEPLLAQQHIEGHYQVDPSLFKPNADFLLRVSGMSMKDIGIMDGDLLAVHKTQDVRNGQVVVARIDDEVTVKRLKKQGNKVELLPENSEFKPIVVDLRQQSFTIEGLAVGVIRNGDWL
notes: Negative control bait; also called bait LexA alone (negative control)
As for B1, the binding result with B42-cTRα LBD, with B42-hRARα LBD and with B42-hRXRα LBD was “no binding” throughout.

B2: β3-endonexin short form (EnS) expressed from pJG4-5 (other, not shown: large carriers)
chain: MPVKRSLKLDGLLEENSFDPSKITRKKSVITYSPTTGTCQMSLFASPTSSEEQKHRNGLSNEKRKKLNHPSLTESKESTTKDNDEFMMLLSKVEKLSEEIMEIMQNLSSIQ
notes: Yeast two-hybrid prey; also called pJG4-5/EnS
Take B2: the binding result in the assay with LexA-hRARα LBD, with LexA-hGR LBD, with LexA-hRXRα LBD and in the assay with LexA-cTRα LBD was “no binding” each time.
